In patent publication US7648964B2, “Use of lacritin in promoting ocular cell survival” (University of Virginia Patent Foundation, priority 2004, dated 2010):

Legend:
PKCα [1] = test: PKCα translocation in HSG cells (immunofluorescence, fractionation); format: cell-based, human; conditions: for PKCα translocation: 15 min after treatment
Description: In order to dissect the molecular pathways leading to the cell survival by lacritin, protein kinases and transcriptional factors were studied by Western blotting and immunofluorescence microscopy.
Images were acquired at 2-3 s intervals using LaserSharp2000 software (Bio-Rad) and store on disc for later analysis.

PKCα [2] = test: Phospho-PKCα blot of HSG cell lysates; format: cell-based, human; conditions: for concentration of optimal dephosphorylation: increasing molar levels
Description: For phosphotyrosine blotting and mitogenesis assays, cells in serum-containing media were seeded overnight in 24-well plates at a density of 0.5×10^5 cells/mm^2 corresponding to 20-30% confluency after cell attachment, incubated in serum-free media without supplements for 24 h (phosphotyrosine) or washed with serum-free media without supplements three times (mitogenesis) and incubated with lacritin (1-1000 nM), or positive controls EGF (1.6 nM) and 10% fetal bovine serum, or negative controls bovine serum albumin or no additive in serum-free media without supplements for the indicated times (phosphotyrosine) or 30 h (mitogenesis). For phosphotyrosine assays, cells were extracted in 1% NP40 containing sodium vanadate (2 mg/ml), DTT (5 mg/ml), protease inhibitors, 50 mM HEPES, 100 mM NaCl, and 2 mM EDTA; then separated by 10% SDS PAGE, transferred and blotted. The following antibodies (Cell Signaling Technology, Beverly Mass.) were tested: antiphosphotyrosine antibody (P-Tyr-100), anti-phospho-PKC αβII, anti-PKCα, anti-phospho-PKCδ, anti-phospho-PKC (pan), anti-p44/42 MAPK, anti-phospho-Raf, anti-phospho-SAPK/JNK, anti-phospho-p38 Map kinase, anti-phospho-Raf, anti-phospho-Akt, anti-phospho-CaMKII, anti-phospho-MARCKS, or anti-tubulin (loading control). After washing, bound antibodies were detected with peroxidase-labeled secondary antibody and ECL. With the exception of at least nine proteins in the P-Tyr-100 blot (FIG. 1), none of the effectors tested above appeared to be phospho-activated during lacritin signaling (not shown). For mitogenesis (Hussaini et al., '00), [^3H]-thymidine (2 mCi/ml) was added for the next 6 h. Incorporation was stopped with ice-cold phosphate buffered saline and followed by addition of cold and then room temperature trichloracetic acid (10%) for 10 min each, washing of cells with phosphate buffered saline, solubilization with 1 N sodium hydroxide, neutralization with 1 N hydrochloric acid, addition of scintillation fluid and then quantitation in a scintillation counter. To deplete PKCα in HSG cells, a pool of four PKCα-specific siRNAs (100 nM) were transfected via LipofectAMINE 2000 in Opti-MEMI Reduced Serum Medium (Invitrogen, Grand Island N.Y.) without serum and antibiotics according to manufacturer's instructions. Each of the four siRNAs was also individually transfected. In negative controls, cells were transfected with a pool of four lamin-specific siRNAs (Upstate LLC, Charlottesville Va.; Dharmacon Inc, Lafayette Colo.). Seventy-two hours post-transfection, mitogenesis was assessed by co-addition of 10 […] lacritin and [^3H]-thymidine (2 mCi/ml) (Amersham, Piscataway N.J.) for 24 hrs. PKCα depletion was confirmed by Western blotting.
We imaged PKCα in cells 15 min after treatment (FIG. 8). Nonmitogenic construct/fragment C-25 (10 nM) had no effect, leaving PKCa diffusely distributed throughout the cytoplasm. […] The phosphorylation state of PKCα influences its translocation site. Hyperphosphorylated PKCα becomes associated with the plasma membrane whereas hypophosphorylated or dephosphorylated PKCα is known to translocate to the perinuclear Golgi region. To determine if the latter is true and if so over what time course, we treated cells with lacritin, N-24 and C-25, and then blotted cell lysates for phospho-PKC ? (FIG. 8B). 10 nM lacritin promotes PKC ? dephosphorylation within 1 min of addition. This form is sustained for at least 15 min, but by 30 min has returned to baseline phosphorylation. Dephosphorylation triggered by increasing molar levels of lacritin or N-24 mirrored the proliferation response with optimal dephosphorylation at 10 nM. Non-mitogenic C-25 had no effect, whereas positive control 4β-phorbol 12-myristate 13-acetate-promoted hyperphosphorylation.

[3] = system: human corneal epithelial (HCE) cell line; test: TNF-α-induced cell death in HCE cells (MTT cell viability); format: cell-based; conditions: for protection from TNF-induced cell death (viability): 18 or 30 hours, FIG. 10
Description: (§1) Lacritin-induced proliferation and calcium signaling was studied in the human corneal epithelial (HCE) cell line. HCE cells were grown at 37° C. in DMEM F/12 supplemented with 10% FBS and 50 μg/ml gentamicin. Each experiment was done in a dose- and time-dependent manner using TNF-α (5-20 ng/ml) and lacritin (1-10 nM). Cell viability was measured spectrophotometrically at an absorbance of 570 nm using the MTT assay. Caspase-8 activity was detected fluorometrically by measuring cleavage of the fluorogenic substrate IETD-pNA at an excitation wavelength of 405 nm. Lacritin-induced cell proliferation was studied by H3-thymidine incorporation and via fluorescence-based detection of PKC, PLC and cAMP. Calcium signaling was detected by confocal microscopy of Fluo-4 loaded cells.

caspase-8 = test: Caspase-8 activity in human corneal epithelial cells treated with TNF-α; format: cell-based
Description: FIG. 12 graphically illustrates the ability of lacritin polypeptides to block TNFα induced caspase-8 activity in human corneal epithelial cells. The ordinate represents relative fluorescence units. White bars indicate 1 hour and diagonally-hatched bars indicate 6 hours.
as §1

caspase-9 = test: Caspase-9 activity in human corneal epithelial cells treated with TNF-α; format: cell-based; conditions: lacritin polypeptides 10 nM
Description: FIG. 13 graphically illustrates the ability of lacritin polypeptides (10 nM) to block TNFα induced caspase-9 activity in human corneal epithelial cells. The ordinate represents relative fluorescence units. White bars indicate 6 hours and diagonally-hatched bars indicate 9 hours.
Caspase-9 activity was measured in cells treated with various combinations of TNF-α, fragments of lacritin, and the PKC inhibitor Go6976. […] The PKC-α inhibitor Go6976 and C-25 fail to block this increase of the downstream initiator caspase-9.

Molecule	effect on lacritin-dependent PKCα translocation (PKCα [1]; pertussis toxin 100 ng/ml, Go 6976, U73122, U73343, cyclosporine 1 μM, nifedipine 10 μM)	effect on lacritin-dependent PKCα dephosphorylation (PKCα [2]; pertussis toxin 100 ng/ml, Go 6976, U73122, U73343 1 μM)	protection from TNF-induced cell death (viability) [3]	effect on TNF-α-induced caspase-8 activity (caspase-8)	effect on TNF-α-induced caspase-9 activity (caspase-9)	PKCα translocation (PKCα [1])	concentration of optimal dephosphorylation (PKCα [2]) [nM]	PKC alpha at the cell membrane (PKCα [1]; about 5 minutes lacritin treatment, subcellular fractionation, Western blotting)	PKC alpha localization (PKCα [1]; lacritin treatment for 1 hour, immunofluorescence)	time dephosphorylated form is sustained (PKCα [2]; 10 nM lacritin)	time of return to baseline phosphorylation (PKCα [2]; 10 nM lacritin) [min]	time to PKCα dephosphorylation (PKCα [2]; 10 nM lacritin) [min]	effect on TNF-α-induced cell death ([3]; lacritin 10 nM pretreatment)
Cn1c2ccccc2c2c3c(c4c5ccccc5n(CCC#N)c4c21)CNC3=O [Go 6976]	inhibited	inhibited	no effect on viability loss	fail to block	fail to block	–	–	–	–	–	–	–	–
N-24: deletion mutant comprising a deletion of the 24 amino terminal amino acids of lacritin (protein, homo sapiens, deletion mutant comprising a deletion of the 24 amino terminal amino acids of lacritin) DSTGADPAQEAGTSKPNEEISGPAEPASPPETTTTAQETSAAAVQGTAKVTSSRQELNPLKSIVEKSILLTEQALAKAGKGMHGGVPGGKQFIENGSEFAQKLLKKFSLLKPWA	–	–	protect	blocked	blocked	shifted PKCα primarily to the perinuclear Golgi region	10	–	–	–	–	–	–
lacritin: recombinant human lacritin from E. coli; mature 119 residue fragment (SEQ ID NO:10) of native lacritin SEQ ID NO:4 (protein, listed as Homo sapiens) EDASSDSTGADPAQEAGTSKPNEEISGPAEPASPPETTTTAQETSAAAVQGTAKVTSSRQELNPLKSIVEKSILLTEQALAKAGKGMHGGVPGGKQFIENGSEFAQKLLKKFSLLKPWA	–	–	protect	completely blocked	blocked	shifted PKCα primarily to the perinuclear Golgi region	10	very little PKC alpha was detected at the cell membrane	localize outside of the nuclear envelope	at least 15 min	≤ 30	≤ 1	attenuated
